From patent publication US20010000783A1, “Treatment of interstitial cystitis” (priority 1998, published 2001)

How the values were obtained:
Assay type in all cases: cell-based
[1] = test system: primary human bladder epithelial cells grown from IC patient biopsy specimens; experiment: Inhibition of HPLC-purified APF activity by rhHB-EGF, 3H-thymidine incorporation, cells from IC patient biopsies; settings: 10 pg/10^7 cells HPLC-purified APF, 48 hours; cells from IC patients; FIG. 10B
Protocol: (§1) Primary normal adult human bladder epithelial (HBE) cells were cultured by the method described above in Part II. On the third day of incubation, cell medium was replaced by serum free MEM containing the less than 3 kDa fraction (i.e, containing the APF) of urine specimens from IC patients or controls (i.e., that part containing the anti-proliferative factor or APF described in related application Ser. No. 08/944,202), or HPLC-purified APF or its mock control along with varying concentrations of recombinant HB-EGF (0-100 ng/ml), EGF (0-100 ng/ml), or IGF-1 (0-300 pg/ml) [all from R & D Systems, Minneapolis, Minn.] diluted in phosphate buffered saline (1:1:1). Urine was prepared by the method described above in Part II and HPLC purified APF was prepared as described above. Following an additional 48 hours of incubation at 37 degrees C. in a 5% CO2 atmosphere, cell proliferation was assessed by ^3H-thymidine incorporation according to the published methods^38.
(§2) Cell proliferation was determined 48 hours later by 3H-thymidine incorporation. Bar values indicate the mean of triplicate determinations. Vertical lines indicate the standard of error of the mean.

[2] = test system: primary human bladder epithelial cells grown from normal bladder tissue; experiment: Inhibition of HPLC-purified APF activity by rhHB-EGF, 3H-thymidine incorporation, cells from normal bladder tissue; settings: 10 pg/10^7 cells HPLC-purified APF, 48 hours; cells from controls; FIG. 10A
Protocol: as §1, §2

[3] = test system: Normal human bladder epithelial cells; experiment: Inhibition of APF activity by recombinant growth factors, low molecular weight urine fractions, 3H-thymidine incorporation
Protocol: as §1
Normal human bladder epithelial cells were exposed simultaneously to recombinant human growth factors (HB-EGF, EGF, or IGF1) and low molecular weight fractions from IC patients or control urine specimens. Cell proliferation was determined 48 hours later by 3H-thymidine incorporation (FIGS. 6A-6C). Bar values indicate the mean of 5-8 determinations. Vertical lines indicate the standard error of the mean.

B1: heparin-binding epidermal growth factor-like growth factor (protein, UniProt Q99075 63-148, looked up)
Heparin-binding EGF-like …: DLQEADLDLLRVTLSSKPQALATPNKEEHGKRKKKGKGLGKKRDPCLRKYKDFCIHGECKYVKELRAPSCICHPGYHGERCHGLSL
- inhibition of APF's antiproliferative effects [1]: can inhibit APF's antiproliferative effects
- inhibition of APF's antiproliferative effects [2]: can inhibit APF's antiproliferative effects
- proliferation of cells exposed to urine from IC patients ([3]; high concentrations of rhHB-EGF, compared with cells exposed to control urines, FIG. 6A): stimulated, more than that of cells exposed to control urines
- inhibition of APF antiproliferative activity ([3]; simultaneous exposure to recombinant growth factor and <3 kDa urine fraction, 48 hours, HB-EGF 0-100 ng/ml (effect evident at 10 ng/ml), EGF 0-100 ng/ml, IGF-1 0-300 pg/ml, FIGS. 6A-6C): resulted in inhibition of APF antiproliferative activity
